Source: US20120003299A1 (KYOTO UNIVERSITY, published 2012)

Experiments:
recombinant human Hsp90 [1] = target: T1, recombinant human Hsp90 (human, UniProt P07900 1-732); test: SPR competition: Hsp90 pre-mixed with 141.1 uM peptide, injected over immobilized Hop TPR2A
T1 construct: The tag is placed first here only because pDEST17 is named; also called heat shock protein 90; not shown: histidine tag from E. coli expression vector pDEST17-Hsp90

recombinant human Hsp90 [2] = target: T1, recombinant human Hsp90; test: SPR competition: Hsp90 pre-mixed with 282.2 uM peptide, injected over immobilized Hop TPR2A
recombinant human Hsp90 [3] = target: T1, recombinant human Hsp90; test: SPR competition: Hsp90 pre-mixed with 1.411 uM peptide, injected over immobilized Hop TPR2A
recombinant human Hsp90 [4] = target: T1, recombinant human Hsp90; test: SPR competition: Hsp90 pre-mixed with 14.11 uM peptide, injected over immobilized Hop TPR2A
recombinant human Hsp90 [5] = target: T1, recombinant human Hsp90; test: SPR competition: Hsp90 without peptide (0 uM, reference) over immobilized Hop TPR2A
recombinant human Hsp90 [6] = target: T1, recombinant human Hsp90; test: SPR competition: Hsp90 pre-mixed with 705.5 uM peptide, injected over immobilized Hop TPR2A

Binder | Binding of Hsp90 (%) (recombinant human Hsp90 [1]) | Binding of Hsp90 (%) (recombinant human Hsp90 [2]) | Binding of Hsp90 (%) (recombinant human Hsp90 [3]) | Binding of Hsp90 (%) (recombinant human Hsp90 [4]) | Binding of Hsp90 (%) (recombinant human Hsp90 [5]) | Binding of Hsp90 (%) (recombinant human Hsp90 [6])
KAYARIGNSYFK [TPR peptide (KAYARIGNSYFK)] | 72.3% | 29.8% | 88.2% | 84.6% | 100% | 0%
RKFSAAIGYNKY (Control peptide) [TPR scramble peptide] | 100% | 90.7% | 100% | 100% | 100% | 88.9%
